biological target: HLA-DRB1*0401 (human); experiment: radioligand binding; solid-state competitive-binding assay (as in Southwood et al, 1998): the peptide blocks the binding of a radio-labeled reference peptide to purified HLA-DR4 complexes; IC50 in nM; conditions: both partners purified

Row | Binder | IC50
1 | EGDAFELTVSCQGGLPK (gp100/pmel17 melanoma-associated antigen, residues 506-522; also called gp100506-522; g506; source: synthetic peptide (FMOC chemistry, UPCI Peptide Synthesis Facility), >90% pure) [gp100/pmel17 506-522] | 3.21 µM
2 | PGPVTAQVVLQAAIPLTSCGSS (gp100/pmel17 melanoma-associated antigen, residues 283-304; also called gp100283-304; g283; source: synthetic peptide (FMOC chemistry, UPCI Peptide Synthesis Facility), >90% pure) [gp100/pmel17 283-304] | 2.89 µM

biological target: HLA-DRB1*0404 (human); experiment: as above; conditions: both partners purified

Row | Binder | IC50
3 | VSGLSIGTGRAMLGTHTMEVTVY (gp100/pmel17 melanoma-associated antigen, residues 167-189; also called gp100167-179; g167; source: synthetic peptide (FMOC chemistry, UPCI Peptide Synthesis Facility), >90% pure) [gp100/pmel17 167-189] | 0.372 µM
4 | KRCLLHLAVIGALLAVGATKV (gp100/pmel17 melanoma-associated antigen, residues 6-26; also called gp1006-26; g6; source: synthetic peptide (FMOC chemistry, UPCI Peptide Synthesis Facility), >90% pure) [gp100/pmel17 6-26] | 0.335 µM
5 | LCQPVLPSPACQLVLHQILKGG (gp100/pmel17 melanoma-associated antigen, residues 540-561; also called gp100540-561; g540; source: synthetic peptide (FMOC chemistry, UPCI Peptide Synthesis Facility), >90% pure) [gp100/pmel17 540-561] | 0.614 µM
6 | EGDAFELTVSCQGGLPK (gp100/pmel17 melanoma-associated antigen, residues 506-522; also called gp100506-522; g506; source: synthetic peptide (FMOC chemistry, UPCI Peptide Synthesis Facility), >90% pure) [gp100/pmel17 506-522] | 3.55 µM
